# Experimental data: patent publication US20170355769A1 (AbbVie / Abbott, published 2017)
# B1: huAb3v2.5-TX (antibody, human IgG1, kappa, L234A L235A, V domains shown)
# VH: EVQLVQSGAEVKKPGSSVKVSCKASGYTFSSYWMHWVRQAPGQGLEWIGLIHPESGSTNYNEMFKNRATLTVDRSTSTAYMELSSLRSEDTAVYYCAGGGRLYFDYWGQGTTVTVSS
# VL: DIVMTQSPLSLPVTPGEPASISCRSSQSLVHSNRDTYLRWYLQKPGQSPQLLIYKVSNRFSGVPDRFSGSGSGTDFTLKISRVEAEDVGVYYCSQSTHVPYTFGGGTKVEIKR
# modifications: synthon TX on reduced interchain Cys
# B2: huAb3v2.5-KZ (antibody, human IgG1, kappa, L234A L235A, V domains shown)
# VH: EVQLVQSGAEVKKPGSSVKVSCKASGYTFSSYWMHWVRQAPGQGLEWIGLIHPESGSTNYNEMFKNRATLTVDRSTSTAYMELSSLRSEDTAVYYCAGGGRLYFDYWGQGTTVTVSS
# VL: DIVMTQSPLSLPVTPGEPASISCRSSQSLVHSNRDTYLRWYLQKPGQSPQLLIYKVSNRFSGVPDRFSGSGSGTDFTLKISRVEAEDVGVYYCSQSTHVPYTFGGGTKVEIKR
# modifications: synthon KZ on reduced interchain Cys
# B3: huAb3v2.5-SE (antibody, human IgG1, kappa, L234A L235A, V domains shown)
# VH: EVQLVQSGAEVKKPGSSVKVSCKASGYTFSSYWMHWVRQAPGQGLEWIGLIHPESGSTNYNEMFKNRATLTVDRSTSTAYMELSSLRSEDTAVYYCAGGGRLYFDYWGQGTTVTVSS
# VL: DIVMTQSPLSLPVTPGEPASISCRSSQSLVHSNRDTYLRWYLQKPGQSPQLLIYKVSNRFSGVPDRFSGSGSGTDFTLKISRVEAEDVGVYYCSQSTHVPYTFGGGTKVEIKR
# modifications: synthon SE on reduced interchain Cys
# B4: huAb3v2.5-ZT (antibody, human IgG1, kappa, L234A L235A, V domains shown)
# VH: EVQLVQSGAEVKKPGSSVKVSCKASGYTFSSYWMHWVRQAPGQGLEWIGLIHPESGSTNYNEMFKNRATLTVDRSTSTAYMELSSLRSEDTAVYYCAGGGRLYFDYWGQGTTVTVSS
# VL: DIVMTQSPLSLPVTPGEPASISCRSSQSLVHSNRDTYLRWYLQKPGQSPQLLIYKVSNRFSGVPDRFSGSGSGTDFTLKISRVEAEDVGVYYCSQSTHVPYTFGGGTKVEIKR
# modifications: synthon ZT on reduced interchain Cys
# B5: huAb3v2.5-AAA (antibody, human IgG1, kappa, L234A L235A, V domains shown)
# VH: EVQLVQSGAEVKKPGSSVKVSCKASGYTFSSYWMHWVRQAPGQGLEWIGLIHPESGSTNYNEMFKNRATLTVDRSTSTAYMELSSLRSEDTAVYYCAGGGRLYFDYWGQGTTVTVSS
# VL: DIVMTQSPLSLPVTPGEPASISCRSSQSLVHSNRDTYLRWYLQKPGQSPQLLIYKVSNRFSGVPDRFSGSGSGTDFTLKISRVEAEDVGVYYCSQSTHVPYTFGGGTKVEIKR
# modifications: synthon AAA on reduced interchain Cys
# B6: huAb3v2.5-TV (antibody, human IgG1, kappa, L234A L235A, V domains shown)
# VH: EVQLVQSGAEVKKPGSSVKVSCKASGYTFSSYWMHWVRQAPGQGLEWIGLIHPESGSTNYNEMFKNRATLTVDRSTSTAYMELSSLRSEDTAVYYCAGGGRLYFDYWGQGTTVTVSS
# VL: DIVMTQSPLSLPVTPGEPASISCRSSQSLVHSNRDTYLRWYLQKPGQSPQLLIYKVSNRFSGVPDRFSGSGSGTDFTLKISRVEAEDVGVYYCSQSTHVPYTFGGGTKVEIKR
# modifications: synthon TV on reduced interchain Cys
# B7: huAb3v2.5-WD (antibody, human IgG1, kappa, L234A L235A, V domains shown)
# VH: EVQLVQSGAEVKKPGSSVKVSCKASGYTFSSYWMHWVRQAPGQGLEWIGLIHPESGSTNYNEMFKNRATLTVDRSTSTAYMELSSLRSEDTAVYYCAGGGRLYFDYWGQGTTVTVSS
# VL: DIVMTQSPLSLPVTPGEPASISCRSSQSLVHSNRDTYLRWYLQKPGQSPQLLIYKVSNRFSGVPDRFSGSGSGTDFTLKISRVEAEDVGVYYCSQSTHVPYTFGGGTKVEIKR
# modifications: synthon WD on reduced interchain Cys
# B8: huAb3v2.5-AAD (antibody, human IgG1, kappa, L234A L235A, V domains shown)
# VH: EVQLVQSGAEVKKPGSSVKVSCKASGYTFSSYWMHWVRQAPGQGLEWIGLIHPESGSTNYNEMFKNRATLTVDRSTSTAYMELSSLRSEDTAVYYCAGGGRLYFDYWGQGTTVTVSS
# VL: DIVMTQSPLSLPVTPGEPASISCRSSQSLVHSNRDTYLRWYLQKPGQSPQLLIYKVSNRFSGVPDRFSGSGSGTDFTLKISRVEAEDVGVYYCSQSTHVPYTFGGGTKVEIKR
# modifications: synthon AAD on reduced interchain Cys
# B9: huAb3v2.5-XW (antibody, human IgG1, kappa, L234A L235A, V domains shown)
# VH: EVQLVQSGAEVKKPGSSVKVSCKASGYTFSSYWMHWVRQAPGQGLEWIGLIHPESGSTNYNEMFKNRATLTVDRSTSTAYMELSSLRSEDTAVYYCAGGGRLYFDYWGQGTTVTVSS
# VL: DIVMTQSPLSLPVTPGEPASISCRSSQSLVHSNRDTYLRWYLQKPGQSPQLLIYKVSNRFSGVPDRFSGSGSGTDFTLKISRVEAEDVGVYYCSQSTHVPYTFGGGTKVEIKR
# modifications: synthon XW on reduced interchain Cys
# B10: huAb3v2.5-YG (antibody, human IgG1, kappa, L234A L235A, V domains shown)
# VH: EVQLVQSGAEVKKPGSSVKVSCKASGYTFSSYWMHWVRQAPGQGLEWIGLIHPESGSTNYNEMFKNRATLTVDRSTSTAYMELSSLRSEDTAVYYCAGGGRLYFDYWGQGTTVTVSS
# VL: DIVMTQSPLSLPVTPGEPASISCRSSQSLVHSNRDTYLRWYLQKPGQSPQLLIYKVSNRFSGVPDRFSGSGSGTDFTLKISRVEAEDVGVYYCSQSTHVPYTFGGGTKVEIKR
# modifications: synthon YG on reduced interchain Cys
# B11: huAb3v2.5-YY (antibody, human IgG1, kappa, L234A L235A, V domains shown)
# VH: EVQLVQSGAEVKKPGSSVKVSCKASGYTFSSYWMHWVRQAPGQGLEWIGLIHPESGSTNYNEMFKNRATLTVDRSTSTAYMELSSLRSEDTAVYYCAGGGRLYFDYWGQGTTVTVSS
# VL: DIVMTQSPLSLPVTPGEPASISCRSSQSLVHSNRDTYLRWYLQKPGQSPQLLIYKVSNRFSGVPDRFSGSGSGTDFTLKISRVEAEDVGVYYCSQSTHVPYTFGGGTKVEIKR
# modifications: synthon YY on reduced interchain Cys
# B12: huAb3v2.5-LB (antibody, human IgG1, kappa, L234A L235A, V domains shown)
# VH: EVQLVQSGAEVKKPGSSVKVSCKASGYTFSSYWMHWVRQAPGQGLEWIGLIHPESGSTNYNEMFKNRATLTVDRSTSTAYMELSSLRSEDTAVYYCAGGGRLYFDYWGQGTTVTVSS
# VL: DIVMTQSPLSLPVTPGEPASISCRSSQSLVHSNRDTYLRWYLQKPGQSPQLLIYKVSNRFSGVPDRFSGSGSGTDFTLKISRVEAEDVGVYYCSQSTHVPYTFGGGTKVEIKR
# modifications: synthon LB on reduced interchain Cys
# B13: huAb3v2.5-ZZ (antibody, human IgG1, kappa, L234A L235A, V domains shown)
# VH: EVQLVQSGAEVKKPGSSVKVSCKASGYTFSSYWMHWVRQAPGQGLEWIGLIHPESGSTNYNEMFKNRATLTVDRSTSTAYMELSSLRSEDTAVYYCAGGGRLYFDYWGQGTTVTVSS
# VL: DIVMTQSPLSLPVTPGEPASISCRSSQSLVHSNRDTYLRWYLQKPGQSPQLLIYKVSNRFSGVPDRFSGSGSGTDFTLKISRVEAEDVGVYYCSQSTHVPYTFGGGTKVEIKR
# modifications: synthon ZZ on reduced interchain Cys
# B14: huAb3v2.5-SR (antibody, human IgG1, kappa, L234A L235A, V domains shown)
# VH: EVQLVQSGAEVKKPGSSVKVSCKASGYTFSSYWMHWVRQAPGQGLEWIGLIHPESGSTNYNEMFKNRATLTVDRSTSTAYMELSSLRSEDTAVYYCAGGGRLYFDYWGQGTTVTVSS
# VL: DIVMTQSPLSLPVTPGEPASISCRSSQSLVHSNRDTYLRWYLQKPGQSPQLLIYKVSNRFSGVPDRFSGSGSGTDFTLKISRVEAEDVGVYYCSQSTHVPYTFGGGTKVEIKR
# modifications: synthon SR on reduced interchain Cys
# B15: huAb13v1-XW (antibody, human IgG1, kappa, L234A L235A, V domains shown)
# VH: EVQLQESGPGLVKPSETLSLTCAVTGYSITSGYSWHWIRQFPGNGLEWMGYIHSSGSTNYNPSLKSRISISRDTSKNQFFLKLSSVTAADTAVYYCAGYDDYFEYWGQGTTVTVSS
# VL: DIQMTQSPSSLSASVGDRVTITCKASQNVGFNVAWYQQKPGKSPKALIYSASYRYSGVPSRFSGSGSGTDFTLTISSLQPEDFAEYFCQQYNWYPFTFGQGTKLEIKR
# modifications: synthon XW on reduced interchain Cys
# B16: huAb13v1-KZ (antibody, human IgG1, kappa, L234A L235A, V domains shown)
# VH: EVQLQESGPGLVKPSETLSLTCAVTGYSITSGYSWHWIRQFPGNGLEWMGYIHSSGSTNYNPSLKSRISISRDTSKNQFFLKLSSVTAADTAVYYCAGYDDYFEYWGQGTTVTVSS
# VL: DIQMTQSPSSLSASVGDRVTITCKASQNVGFNVAWYQQKPGKSPKALIYSASYRYSGVPSRFSGSGSGTDFTLTISSLQPEDFAEYFCQQYNWYPFTFGQGTKLEIKR
# modifications: synthon KZ on reduced interchain Cys
# B17: huAb13v1-TX (antibody, human IgG1, kappa, L234A L235A, V domains shown)
# VH: EVQLQESGPGLVKPSETLSLTCAVTGYSITSGYSWHWIRQFPGNGLEWMGYIHSSGSTNYNPSLKSRISISRDTSKNQFFLKLSSVTAADTAVYYCAGYDDYFEYWGQGTTVTVSS
# VL: DIQMTQSPSSLSASVGDRVTITCKASQNVGFNVAWYQQKPGKSPKALIYSASYRYSGVPSRFSGSGSGTDFTLTISSLQPEDFAEYFCQQYNWYPFTFGQGTKLEIKR
# modifications: synthon TX on reduced interchain Cys
# B18: huAb13v1-YG (antibody, human IgG1, kappa, L234A L235A, V domains shown)
# VH: EVQLQESGPGLVKPSETLSLTCAVTGYSITSGYSWHWIRQFPGNGLEWMGYIHSSGSTNYNPSLKSRISISRDTSKNQFFLKLSSVTAADTAVYYCAGYDDYFEYWGQGTTVTVSS
# VL: DIQMTQSPSSLSASVGDRVTITCKASQNVGFNVAWYQQKPGKSPKALIYSASYRYSGVPSRFSGSGSGTDFTLTISSLQPEDFAEYFCQQYNWYPFTFGQGTKLEIKR
# modifications: synthon YG on reduced interchain Cys
# B19: huAb13v1-SE (antibody, human IgG1, kappa, L234A L235A, V domains shown)
# VH: EVQLQESGPGLVKPSETLSLTCAVTGYSITSGYSWHWIRQFPGNGLEWMGYIHSSGSTNYNPSLKSRISISRDTSKNQFFLKLSSVTAADTAVYYCAGYDDYFEYWGQGTTVTVSS
# VL: DIQMTQSPSSLSASVGDRVTITCKASQNVGFNVAWYQQKPGKSPKALIYSASYRYSGVPSRFSGSGSGTDFTLTISSLQPEDFAEYFCQQYNWYPFTFGQGTKLEIKR
# modifications: synthon SE on reduced interchain Cys
# B20: huAb13v1-SR (antibody, human IgG1, kappa, L234A L235A, V domains shown)
# VH: EVQLQESGPGLVKPSETLSLTCAVTGYSITSGYSWHWIRQFPGNGLEWMGYIHSSGSTNYNPSLKSRISISRDTSKNQFFLKLSSVTAADTAVYYCAGYDDYFEYWGQGTTVTVSS
# VL: DIQMTQSPSSLSASVGDRVTITCKASQNVGFNVAWYQQKPGKSPKALIYSASYRYSGVPSRFSGSGSGTDFTLTISSLQPEDFAEYFCQQYNWYPFTFGQGTKLEIKR
# modifications: synthon SR on reduced interchain Cys
# Molecular target: T1, Human full length B7-H3 (human, UniProt Q5ZPR3 29-534)
# T1 sequence: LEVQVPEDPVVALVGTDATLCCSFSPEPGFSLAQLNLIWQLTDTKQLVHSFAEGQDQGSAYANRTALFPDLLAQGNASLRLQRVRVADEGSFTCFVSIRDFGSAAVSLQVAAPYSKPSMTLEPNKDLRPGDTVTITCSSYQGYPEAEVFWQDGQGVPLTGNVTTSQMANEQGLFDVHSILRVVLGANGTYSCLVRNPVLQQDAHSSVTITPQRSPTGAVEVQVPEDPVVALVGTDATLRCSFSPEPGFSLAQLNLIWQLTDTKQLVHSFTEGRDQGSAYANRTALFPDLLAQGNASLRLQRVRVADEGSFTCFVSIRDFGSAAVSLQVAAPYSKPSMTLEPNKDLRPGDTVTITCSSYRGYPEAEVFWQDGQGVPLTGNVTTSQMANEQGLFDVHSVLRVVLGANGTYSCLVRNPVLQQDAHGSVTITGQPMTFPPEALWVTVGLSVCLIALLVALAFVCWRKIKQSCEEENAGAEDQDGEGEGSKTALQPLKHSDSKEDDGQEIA
# Assay: cell-based or functional assay
row,Binder,EC50 nM H1650 (tumor cell cytotoxicity) [nM]
1,B1,0.62
2,B2,0.87
3,B3,0.85
4,B4,0.95
5,B5,0.85
6,B6,0.53
7,B7,0.83
8,B8,0.49
9,B9,2.18
10,B10,0.71
11,B11,0.71
12,B12,2.59
13,B13,1.1
14,B14,0.59
15,B15,0.86
16,B16,179
17,B17,0.22
18,B18,0.33
19,B19,0.63
20,B20,0.59
